Here are results for 68 sequences from the domain aggregation screens of Martell et al. (2025).

This series can be described thus: soluble fraction after stress (log2 fold change); higher = more stays soluble; pooled small domains, quantitative proteomics. The following applies: stress: 50 degC. The procedure, abridged:
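Each library was heated to 50°C as a stress step. The libraries, made up of small protein domains, were pooled and analysed at high throughput by quantitative proteomics. The reported value is the base-two logarithm of the fold change in each protein's soluble amount after stress, taken as a measure of aggregation propensity. The higher the value, the more protein stays in solution.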
For the sequence “HMRMLLKELLIQYEVKNDKSHVEVAKEVGVSLSTYYRWLNGESLHLKKRTIDRLSEVLHYDINQVVEES”, the “soluble fraction (log2)” value was -2.35.

“HMRMLSEGAQRMLRGLAVLEEASADRLLELHQGDYPGFVRSLFALESAGLFQRNGSGTWIRR”: the “soluble fraction (log2)” value was -0.819.

With “HMRMNASERQNQIVDLLSQNGVMKIMDIADHFNVSRETIRRDLIILEDDNRIKKWFGGVISAN”, the “soluble fraction (log2)” value is -0.461.

Consider “HMRMQRYYLTDMSEKGREALPGVLDEMGYAGRYTMSDNSIAINSNMIVLSKAIKRAEDIAHNE”, for which the “soluble fraction (log2)” value was -0.086.

Consider “HMRMRPNERQKRIIELLSFRRHETIGNFANEFGVSRDTIKRDIITLQEEYPIISERGYEGGISLPDGYYI”, for which the “soluble fraction (log2)” value was -0.263.

With “HMRMSLDEAKAVVLPIGEYKGRNMGEVLAIKPELIDFYASQKFNSSKYPYLKEAAQVILENQ”, the “soluble fraction (log2)” value is -0.0538.

For “HMRMSPRERKIYQFIENHPGTKSGEMAEKLGIPLPTIKRLLSDMVASKLLQKHGTGAGTNYSIEE”, the “soluble fraction (log2)” value amounted to 0.201.

On to “HMRMSQLSRLISILTLLKSKRLLTATELAEKYDVSIRTVYRDIRKLEEAGIPVYTIEGRGYSLMDNYT”, for which the “soluble fraction (log2)” value was -1.6.

Turning to “HMRNANENTLKDLPVAVPNIHVSNIEEKKDFHLIQLEYSQEFDPREDLFNFAVNSSWVILKMTPT”, the “soluble fraction (log2)” value worked out at 0.422.

Consider “HMRNDIFDQLTEREMQILQEVAKGYRNKQIADHLFISESTVKVHMKSLLKKLQVPSRTAATVLYLERYG”, for which the “soluble fraction (log2)” value is -1.66.

As to “HMRNEFEAHSDGTRIQLNDRSKATFSVYDVQGRLIHSFQDFSGSSFNIEPKNQLLIITRETAEGVSVKKLV”, the “soluble fraction (log2)” value was 0.0942.

“HMRNKTVKEVLDYIEKNSEFIFFYYSKAIDTKRIVSLSVKDQPITVILDQLFKNTDVLYEIKDRQISLKRE”: the “soluble fraction (log2)” value worked out at 0.277.

On to “HMRNTETMKEIQAFVEDYFFEYHQSPSMQKVADAIGTSKSTAYYYVMEMARNGMLHYDGKTIETPHTQKS”, for which the “soluble fraction (log2)” value was -1.09.

As for “HMRPDDPYLVIGASREMGDEELKRHYRRLVAETHPDRGIARGLPAEAIAIATRRLAAINAAWDAIERERGL”, the “soluble fraction (log2)” value is 0.035.

In the case of “HMRPDSFEAGEAEAGSRLDRLLAARLGIPRNQVQQWIGGGRVTVDAEPVRASLVVRAGMRIAWDPPPPP”, the “soluble fraction (log2)” value is -0.0768.

Regarding “HMRPEKLVLKALRGAHGPLSAEEVAGRIEADGGAGLDVARVEHVLGQLERSGTVAALGGGKYLALR”, the “soluble fraction (log2)” value turned out to be 0.281.

Turning to “HMRPHDDHLREQLLGIATETIARTGVEGLSLRTLATDAGTSTSAVYQLFGSRAALLDAVYLRVLE”, the “soluble fraction (log2)” value is -1.26.

In the case of “HMRPLISQTLRIDRGEGDIAGPLGVLAKEYPHLSMGSYPFQKDGIYGAHVVIRGSDPGMVEAAMDKLKAAF”, the “soluble fraction (log2)” value worked out at 0.018.

Take “HMRPLTPLEKLTPDADGKYYHIVQSGETLSWIAKLYETTAEKLQAWNNLFSSDIFPNQKLLLQVTPP”: the “soluble fraction (log2)” value is 0.0722.

For “HMRPPLEWGTHGEITTRTVASGYVRASARVRLWDGELQRMTATASTASDARASLQHRIAERLRFSEL”, the “soluble fraction (log2)” value is -1.46.

As to “HMRPPLRAAIIDHLARDWHTVAELARLLPASGAHVSRLVVELRAVGAVDERISHPDWPGNRPTEYRLRRA”, the “soluble fraction (log2)” value was -3.58.

Regarding “HMRPTHYSGPSVIAMINNRVWFSDGSRLAPGEHHDDLEVVGLSPPWSAKVRWQGVEFDVGLFE”, the “soluble fraction (log2)” value is -1.45.

Take “HMRQGHLDLLRQIHALPPSTREVVYLRAFGGLSFREIGDVLGRTETWARVTFYRGKEALRKG”: the “soluble fraction (log2)” value amounted to 0.0194.

For “HMRQHHMIISTKLGTPKEELAKLVSGFEDQGLRVSVITGTDYTVIGLVGDTTHLDEKRIRANPYVDNVQRV”, the “soluble fraction (log2)” value is -0.0184.

“HMRQIMIIVLKSTATKEDSLLFKNKLEQEYGVKVNEWTGVESTVLGLIGDTTKIDIDYISAQDIVESVKRV”: the “soluble fraction (log2)” value is 0.252.

Regarding “HMRQKTTFFATESFELPNGEKVEEGQIFRLNDGAFNIAEQQGITRFLTSEANYGRMIAANAEVEKAKLDA”, the “soluble fraction (log2)” value came out at 0.268.

Regarding “HMRQLISIYNNTIGADEIDQMRNILSNSGYKEGVDFAVQTADKKSVILVRRDLAGMIQEQLSGEGLPS”, the “soluble fraction (log2)” value came out at 0.0201.

For “HMRQNPESFLNHKVKKNESLESLTKKYELTENEIIFYNPLIQKIGLKKRMILKIPIYNNQNLVTKSVD”, the “soluble fraction (log2)” value amounted to 0.256.

With “HMRQPRGQRVTVREASSLLPFLFAHLTDRSRSAVKSLLRHGQIWVNGRVTTHFDMPLRPGDTVLISHERG”, the “soluble fraction (log2)” value is -0.347.

Turning to “HMRQSQEVSGGERYRRLTAYLDTHPFITRKEYSGITGLLKNKALNDLNLLVNKGYLEAMGRGSHKVYVRPM”, the “soluble fraction (log2)” value was -0.424.

Regarding “HMRQSSLRTRELLIDAARQLFARFGVEKTTMNDIAEASKRGRRTVYMYFNSKSDVFYAVVGRE”, the “soluble fraction (log2)” value is -0.212.

For the sequence “HMRQVFPNPSSSQIKLASSRIGQAFSILDQQGRVVLSGKVSEEAVIALENLAKGIYVLKIGSWSETILK”, the “soluble fraction (log2)” value was -0.903.

In the case of “HMRRATLERLANNTAEKAIRYKRSLALEPMNPQERRIIHAALQEVEGVSTHSVGTEPNRKVIVVPDGV”, the “soluble fraction (log2)” value is -0.0677.

Regarding “HMRRFEFSDGSSNKFWQITRDGTSLTVTFGKIGTAGQTQLKELATEAAAIAEHDKLVKEKTKKGYAEVG”, the “soluble fraction (log2)” value is -0.206.

Turning to “HMRRGFGYVRKLPSGRWQASFVGPDLARHSAPHTFETKGDAEGWLGRRQADVVAGEWRPPVP”, the “soluble fraction (log2)” value is 0.205.

As for “HMRRISLEDWQLIESLIRRDWSPEQISLWLKKYKKIRVSHEWIYQYILKDKSKAGDLHTHLRSR”, the “soluble fraction (log2)” value is -0.174.

As to “HMRRKNQVQSSYQKRENGTYTVRFFLSDDMGSIMDLQLMATREDMARALRERFLKDPEKIYGQIMQMLLR”, the “soluble fraction (log2)” value is -0.255.

“HMRRLGTTEIAGILRREISQGILIAKERLPSERSLADTYGVARGTVRQALNLLAREGLVQIRRSSGAYVTF”: the “soluble fraction (log2)” value is -0.33.

For “HMRRMAYLVGQRGLAMGDFISGTGQVRIGDTVWRAEAVEGELVRTGDTVVVEGAKMTTAIVRRVM”, the “soluble fraction (log2)” value is -0.351.

“HMRRRKPLVSYEYGTRVYAPSEGEPRYRVVATDADGQRVFAKFSSEEAARHRAREIEGRLATS”: the “soluble fraction (log2)” value was -0.00468.

For “HMRRSSQQLTLTEVSTIKEMVTSEEYRHVPTGTLALLAQRLRKVFASSSTWYRLVRIYKWRRPRGRIH”, the “soluble fraction (log2)” value is 0.549.

Take “HMRRSVYQANVLDAIKHLVDQNELATTKAIAEYIGDDYQGNVSRAIRELLADRKIKKLPKVGVLQPYEA”: the “soluble fraction (log2)” value was -0.285.

Consider “HMRRVEDVRTALEHFAAARNTTPMAMTLDQRREAMRELAASGLLNLRRALSEVAQTLGVARSTVYTYLP”, for which the “soluble fraction (log2)” value was -0.84.

For “HMRSAKEYKAIREEIYRFIGAYITKHVYAPSNKEIAEAVGISGTTVHRHLIDMIDEGILETD”, the “soluble fraction (log2)” value is -2.56.

Regarding “HMRSFGTLRRLPSGRYQASYAGPDLRRHAAPTTFETKLDAEGWLRDEHRMIERDEWTAPAARSQLK”, the “soluble fraction (log2)” value was determined as 0.214.

As to “HMRSFRIGGLVEQGSIARDGQSLTVRFAVTDLAHKIPVTYTGLLPDLFKEGKGVVAEGKLGPDGVFHASQV”, the “soluble fraction (log2)” value is -0.0153.

Regarding “HMRSPIWKSITATLTAEIAGGQYRAGDKLPTEAELSQRFGVNRHTLRRALAEMAGAGLVVARRGAGVFVQG”, the “soluble fraction (log2)” value was -1.94.

Regarding “HMRSPLYVQIKQHILGDIRKGVWKPGEKLPTELDLAERFGVSVGTVRRAMGGLEDEGIISRREGSGTFVRT”, the “soluble fraction (log2)” value was found to be 0.0686.

For “HMRSSAATMFGRIALKNKLVDEATLKKVMSELPAGADLGAVLVKQGLISEQHAEAIQKKITAHMKSAP”, the “soluble fraction (log2)” value was 0.273.

Regarding “HMRSSALDEIPGIGKQRKKNLLVHFTSVAKIKEASLDEIAAVPGMNRKAALVVVEFFQNQERE”, the “soluble fraction (log2)” value is -1.79.

Turning to “HMRSSNEAVSQRRDKILDYISATGRTSTEIVAKEFGVSVMTARRDLLYLMEKRLISKSSSGLFKVDNN”, the “soluble fraction (log2)” value was -2.42.

As to “HMRTIGDSVYEKIKYDIVHLTLKPGEKLSEASLAEKYGISKAPIRVALRKLQEEGLIVIRPQSGSIVSP”, the “soluble fraction (log2)” value was -0.568.

Consider “HMRTMRHLSVPRQETQQILSQLKAEFALPQGARVQPDPSDSKRTLIPVKEGAESELLSRYPVVHAEP”, for which the “soluble fraction (log2)” value was 0.0847.

As to “HMRTNNEITSYKLKSGKKRWKFQTYLGLDDKGQKVSVTRQGFRTYNEAISEYNKLRAQGTQGYQ”, the “soluble fraction (log2)” value is -0.355.

As to “HMRTPTGVQAYLSSGLIKGIGEKTAAAIVDKFGTDALSVIETDPERLLEIPGITPNKLREILESYNQH”, the “soluble fraction (log2)” value came out at 0.141.

For the sequence “HMRTVAERYGLTAGQWRVLELLTQGKTNRQIAEMLDVTEGTVKIHVSAIFKAMKVTNRTQALLLAKKH”, the “soluble fraction (log2)” value was -0.558.

Take “HMRTYDPQAVELNNKALELINQGRLDSALLVYDQSIKTDKTYYFPHIGKSIIYMRKKDWNKAFEETQQAIK”: the “soluble fraction (log2)” value was determined as 0.18.

With “HMRVDLATEVHSVLRRMMSRPPTLQEIRADLDGEEPGRVHEALDALRAAFRGGRGPKNPYESLKRSLRRG”, the “soluble fraction (log2)” value was determined as 0.0134.

Turning to “HMRVDLVQRLARHGLSPRQSAVAGGVLRGLDNGEISRQLYIAEQTVKDHLHEIYHRLGVHTRTELLIKVLG”, the “soluble fraction (log2)” value is -1.6.

Turning to “HMRVGISRNSGAAGIAVWLTQKLGRPVAKTEEIVHILKNWVDDQYEAGRVTNIGDGELWSVYKQMEAEE”, the “soluble fraction (log2)” value was -0.359.

On to “HMRVTEIDYGAFMKMIEEKNIGEVKVEDYEIVFTDKDNKNIYKTGIMDDPDLTQRLYNSGAVFA”, for which the “soluble fraction (log2)” value is 0.0247.

Consider “HMRWGDPLTVKVPSFIGQTKDDIAKQHYPFRIEWHGEGAKIGSQLPEVDSVIKQDGTIHLYLV”, for which the “soluble fraction (log2)” value was -0.104.

As for “HMRYFDDEELNNKFLEFLSMRKKIRKPVRTDRALKALLKKLHELSGGDVGLMKQIIDQSLDKEWLGLFEL”, the “soluble fraction (log2)” value was -0.422.

In the case of “HMRYNPETTAGRRGLIIKMLDEYGQVNVNELSRYFNVSEVTVRNDLAYLERKNLLIRARGGAIKTE”, the “soluble fraction (log2)” value is -0.941.

“HMRYWVKSETDFLIENRGKYSYQEFADMLGRSYAVVYDKMHQLKIDYTKEELEIFDEKHKAQMREKQQR”: the “soluble fraction (log2)” value was -1.52.

For the sequence “HMSAAPVGPWALSEFLDAVEKDSVERVTFDDAGKALVAVDADGGRHRVEILPSEGPEILAALRKHSVQFA”, the “soluble fraction (log2)” value stood at 0.0953.

For “HMSADEVSQQLTSEQTKSKSYQALLQAYAAYQQKSFDDAALELQNVQQDVLSDSQKTIYNTISQAVNS”, the “soluble fraction (log2)” value stood at 0.185.

For “HMSADISIGYNIPKGSVTVSAGGRTLQEGIDYDINYDLGTIKITNQAILNAGLPVQVNFENNAS”, the “soluble fraction (log2)” value is 0.149.
